According to patent US20220064331A1 (Genentech, published 2022):

T1: rat KLB (+N-ter FLAG) (rat, UniProt Q99N32 53-989 (mouse entry))
T1 construct: expressed from KLB cDNA on HEK293T cells and read by FACS
T1 chain: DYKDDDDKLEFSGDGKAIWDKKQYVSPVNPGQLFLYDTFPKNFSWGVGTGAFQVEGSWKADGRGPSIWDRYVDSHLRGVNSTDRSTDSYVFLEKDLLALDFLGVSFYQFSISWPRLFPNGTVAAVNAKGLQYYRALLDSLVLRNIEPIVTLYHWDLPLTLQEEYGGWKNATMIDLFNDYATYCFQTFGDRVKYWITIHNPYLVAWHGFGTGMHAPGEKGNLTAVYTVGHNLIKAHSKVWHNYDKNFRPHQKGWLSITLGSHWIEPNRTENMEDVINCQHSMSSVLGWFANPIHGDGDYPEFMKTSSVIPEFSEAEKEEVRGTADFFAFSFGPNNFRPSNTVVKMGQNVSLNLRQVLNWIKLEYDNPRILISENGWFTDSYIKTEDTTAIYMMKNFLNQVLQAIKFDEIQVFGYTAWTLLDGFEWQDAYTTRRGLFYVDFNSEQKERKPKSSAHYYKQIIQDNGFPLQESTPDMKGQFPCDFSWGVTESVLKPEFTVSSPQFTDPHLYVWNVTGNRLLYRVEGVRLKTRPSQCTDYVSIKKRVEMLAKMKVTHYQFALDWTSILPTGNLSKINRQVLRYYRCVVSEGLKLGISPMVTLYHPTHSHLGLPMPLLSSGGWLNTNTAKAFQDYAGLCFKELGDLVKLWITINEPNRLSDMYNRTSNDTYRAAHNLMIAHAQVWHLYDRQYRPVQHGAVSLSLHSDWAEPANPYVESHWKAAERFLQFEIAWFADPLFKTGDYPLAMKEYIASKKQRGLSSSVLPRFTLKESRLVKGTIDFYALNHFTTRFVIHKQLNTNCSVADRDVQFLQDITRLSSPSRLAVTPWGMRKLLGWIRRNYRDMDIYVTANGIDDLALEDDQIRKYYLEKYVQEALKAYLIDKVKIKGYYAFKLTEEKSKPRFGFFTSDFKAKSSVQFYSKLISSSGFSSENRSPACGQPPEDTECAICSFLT

T2: rabbit KLB (+N-ter FLAG) (rabbit)
T2 construct: expressed from KLB cDNA on HEK293T cells and read by FACS
T2 chain: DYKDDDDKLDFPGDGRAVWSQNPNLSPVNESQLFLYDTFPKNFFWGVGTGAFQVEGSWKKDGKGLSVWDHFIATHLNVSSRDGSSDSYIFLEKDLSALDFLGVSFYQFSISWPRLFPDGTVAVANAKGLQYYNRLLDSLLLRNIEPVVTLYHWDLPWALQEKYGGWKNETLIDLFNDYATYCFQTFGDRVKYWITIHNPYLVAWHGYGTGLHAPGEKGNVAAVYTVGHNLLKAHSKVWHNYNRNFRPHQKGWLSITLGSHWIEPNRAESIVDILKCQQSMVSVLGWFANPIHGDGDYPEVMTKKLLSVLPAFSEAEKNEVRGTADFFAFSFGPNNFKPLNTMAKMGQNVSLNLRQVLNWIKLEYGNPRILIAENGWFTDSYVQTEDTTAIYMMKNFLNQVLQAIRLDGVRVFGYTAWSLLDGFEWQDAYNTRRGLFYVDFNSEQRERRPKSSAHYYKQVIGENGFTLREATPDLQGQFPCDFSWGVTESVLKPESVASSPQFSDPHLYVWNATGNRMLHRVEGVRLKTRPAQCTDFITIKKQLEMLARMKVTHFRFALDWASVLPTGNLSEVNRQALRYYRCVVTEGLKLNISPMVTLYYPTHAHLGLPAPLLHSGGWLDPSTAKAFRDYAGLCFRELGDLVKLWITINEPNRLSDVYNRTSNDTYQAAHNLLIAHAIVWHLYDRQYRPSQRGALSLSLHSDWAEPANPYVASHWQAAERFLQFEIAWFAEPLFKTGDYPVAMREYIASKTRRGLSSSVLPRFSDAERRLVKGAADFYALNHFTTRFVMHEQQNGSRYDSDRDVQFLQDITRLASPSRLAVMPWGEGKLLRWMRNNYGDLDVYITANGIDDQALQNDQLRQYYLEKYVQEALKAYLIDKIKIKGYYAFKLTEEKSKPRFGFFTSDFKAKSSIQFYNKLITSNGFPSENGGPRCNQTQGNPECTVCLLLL

T3: rhesus monkey KLB (+N-ter FLAG) (rhesus monkey, UniProt Q86Z14 53-992 (human entry))
T3 construct: expressed from KLB cDNA on HEK293T cells and read by FACS
T3 chain: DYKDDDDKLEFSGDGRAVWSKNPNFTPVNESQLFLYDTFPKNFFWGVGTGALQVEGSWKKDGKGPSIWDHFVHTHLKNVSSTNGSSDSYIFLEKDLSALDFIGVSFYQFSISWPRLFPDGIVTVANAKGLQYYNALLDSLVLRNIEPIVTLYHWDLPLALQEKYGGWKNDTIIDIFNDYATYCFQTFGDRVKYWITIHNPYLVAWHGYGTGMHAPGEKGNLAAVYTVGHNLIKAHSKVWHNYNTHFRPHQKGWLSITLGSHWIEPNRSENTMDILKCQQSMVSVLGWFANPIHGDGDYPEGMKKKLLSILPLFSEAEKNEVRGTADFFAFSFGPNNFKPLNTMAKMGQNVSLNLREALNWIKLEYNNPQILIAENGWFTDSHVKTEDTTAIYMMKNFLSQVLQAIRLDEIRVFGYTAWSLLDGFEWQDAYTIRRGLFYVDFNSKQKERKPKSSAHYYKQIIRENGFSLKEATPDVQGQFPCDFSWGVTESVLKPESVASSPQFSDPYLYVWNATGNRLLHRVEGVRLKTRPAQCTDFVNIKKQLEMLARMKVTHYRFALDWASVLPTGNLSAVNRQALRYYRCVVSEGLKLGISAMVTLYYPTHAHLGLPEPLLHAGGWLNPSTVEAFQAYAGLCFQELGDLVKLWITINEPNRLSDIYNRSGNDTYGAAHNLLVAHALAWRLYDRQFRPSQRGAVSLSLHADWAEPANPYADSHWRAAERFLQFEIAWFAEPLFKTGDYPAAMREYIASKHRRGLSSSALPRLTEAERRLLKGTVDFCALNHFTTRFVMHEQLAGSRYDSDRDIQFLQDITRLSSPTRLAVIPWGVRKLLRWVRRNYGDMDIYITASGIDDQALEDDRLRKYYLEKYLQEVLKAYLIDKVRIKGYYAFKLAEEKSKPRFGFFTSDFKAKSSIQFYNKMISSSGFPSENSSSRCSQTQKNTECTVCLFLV


Tests used:
Assay in all cases: FACS on transfected HEK293T cells
rat KLB (+N-ter FLAG) = target: T1, rat KLB (+N-ter FLAG)
Method: (§1) Species cross reactivity of the disclosed anti-KLB antibodies were analyzed by FACS analysis using KLB cDNA from mouse, rat, rabbit, cynomolgus monkey and rhesus monkey cloned into pRK mammalian expression vectors transiently transfected into HEK293T cells. The KLB extracellular domain polypeptide sequences that were expressed are as follows: […]

rabbit KLB (+N-ter FLAG) = target: T2, rabbit KLB (+N-ter FLAG)
Method: as §1

[1] = target: T3, rhesus monkey KLB (+N-ter FLAG)
Method: as §1

binding result (rat KLB (+N-ter FLAG)) | binding result (rabbit KLB (+N-ter FLAG)) | binding result [1] | Binder
no binding | binds | binds | 6C1 (antibody, V domains shown, murine hybridoma-derived anti-KLB antibody; also called KLBmAb4) VH: QVQLQQSGDELMKPGASVKISCKVTGNTFSSYWIEWVKQRPGHGLEWIGEILPGSDSTKYVEKFKVKATFTADTSSNTAYMQLSSLTSEDSAVYYCARGGYHYPGWLVYWGQGTLVTVSA VL: DIVMTQSQKFMSTSVGDRVSVTCKASQNVDSYVAWYQQKAGQSPKPLIYSASYRFSGVPDRFTGSGSGTEFTLTISNVQSEDLAEYFCQQYNISPYTFGGGTKLEIK
no binding | binds | binds | 11D4 (antibody, V domains shown, murine hybridoma-derived anti-KLB antibody; also called KLBmAb5) VH: QVQVKESGPGLVAPSQSLSITCTVSGFSLTNYGVSWIRQPPGKGLEWLGVIWGDGSINYHSALISRLTITKDNSKSQVFLKLNSLEADDTATYYCAKTHDWFDYWGQGTLVTVSA VL: DIQMTQTPSSLSASLGDRVTINCRASQDISNYFNWYQQKPNGTIKLLIYYTSRLQSGVPSRFSGSGSGTDYSLTISNLEQEDKATYFCHQVRTLPWTFGGGTKLEIK
no binding | binds | no binding | 46C3 (antibody, V domains shown, murine hybridoma-derived anti-KLB antibody) VH: EVQLQQSGAELVKPGASVKLSCTASDFNIIDTYIHWVKQRPEQGLEWIGRIDPANGNTKYDPKFQDKAALTSDTDSNTAYLLFNSLTSEDTAVYYCARGTSYSWFAYWGQGTLVSVSA VL: AVLMTQTPLSLPVSLGDQASISCRSSQNIVHSDGNTYLEWYLQKPGQSPKLLIYKVSNRFSGVPDRFSGSGSGRDFTLKISRVEAGDLGVYYCFQGSHVLTFGAGTRLELK
no binding | no binding | binds | 11F1 (antibody, V domains shown, murine hybridoma-derived anti-KLB antibody) VH: EVQLVESGGGLVKPGGSLKLSCAPSGFTFSSYGISWVRQTPEKRLEWVATVSSGGRYTYYPDSVKGRFTISRDNAENTLYLQMSSLRSEDTAMYYCTRGGDGYALDYWGQGTSVTVSS VL: DIQMTQTTSSLSASLGDRVTIICSASQVISNYLNWYQQKPDGTVKLLIYFTSSLRSGVPSRFSGSGSGTDYSLTISNLEPEDVATYFCQQYSKLPWTFGGGTKLELK
binds | binds | binds | 14E6 (antibody, V domains shown, murine hybridoma-derived anti-KLB antibody) VH: EVPLQQSGPELVKPGATVKISCKPSGDTFTEYTMNWVRQSHGKSLEWIGGINPNNGETSYNQKFKGKATLTVDKSSSTAFMDLRILTSEDSAVYFCARKTTNYWGQGTTLIVSS VL: DIQMTQSPSSLSASLGERVSLTCRASQEISGYLSWLQQKPDGTIKRLIYAASTLDSGVPRRFSGSRSGSDYSLTISSLESEDFADYYCLQYGSYPWTFGGGTKLELK
no binding | binds | binds | 21H3 (antibody, V domains shown, murine hybridoma-derived anti-KLB antibody) VH: QVQLQQPGAEIVKPGASVRLSCKASGYSFTSYWIHWVKQRPGQGLEWIGEIDPSVSNSNYNQKFKGKATLTADKSSSTAYMQLSGLTSEDSAVYFCVRLGVMVYGSSPFWFAYWGQGTLVTVSA VL: DIVMTQSQKFMSTSVGDRVSITCKASQFVSDAVAWYQQKPGQSPKLLICSASYRYTGVPDRFTGSGSGTDFTFTISSVRTEDLAVYYCQQHYIVPYTFGGGTTLEIE
